Test: yeast display, Sf9 membrane polyspecificity reagent, FACS + sequencing; frameworks hold sequencing errors
Procedure, shortened: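 Galactose induction of a Saccharomyces cerevisiae BJ5465 synthetic nanobody display library ran 36–48 hours. The cells were then stained for 1 hour at 4 °C with 10% biotinylated, detergent-solubilized Sf9 membrane reagent, pulled down on streptavidin microbeads and FACS-sorted into low and high (top ~1%) gates on expression and reagent-binding fluorescence. Labels for polyreactivity follow the gate of origin.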

Row | Sequence | polyreactivity (PSR sort gate)
1 | QVQLVESGGGLVQAGGSLRLSCAASGRIFLGYTMGWYIQAPGKERELVAAISYTGGSTYYADSVKGRFTISRDNAKNSVYLQMNSLKPEDTAVYYCAAGTRFSYYWGQGTQLTVSS | high polyreactivity
2 | QVQLVESGGGLVQAGGSLRVSCAASGLTFSVYTRGWYRQAPGKERELVAAITTSGGRTYYADSVKGRFTISRDNAKNTVYLQMNSLKPEDTAVYYCAAVRTGDTTGTMGYWGQGTQVTVSS | high polyreactivity
3 | QVQLVESGGGLDQAGGSLRSSCAASGRIFPSYAMGWYRQAPGKERELVAAISRSGGSTYYADSVKGRFTISRDNAKNTVDLQMICLKPEDTGVYYCAKQVYSGYSTRARSRYYEYYYWGQGNQVTVSS | high polyreactivity
4 | QVQLVESGGGLVKAGGSLRLSCAASGRNFSQNVMGWYRQAPGKERELVADISRGGSTNYADSVKGRFTISRDNAKNSVFLQMNSLKPEDTAVYYCAARLFWYYYHPYYYWGQGTQVTVSS | high polyreactivity
5 | QVQLVESGGGLVQAGGSLRLSCAASGRTFYRYAMGLYRQAPRKERELVASITRGTSTNYADSVKGRFTISRDNAKNTVYLQMNSLKPEDTAVYYCNRRIFGGQRMYYWGQGTQVTVSS | high polyreactivity
6 | QVQLVESGGGLVQAGGSLRLSCAASGSIFWWYGMGWDRQAPGKERELVADITSGGGTYYADSVKGRFTISRDNAKNTVYLQLNSLKPEDTAVYYCAADVRAYRFDYYFDYWGQGTQVTVSS | low polyreactivity
7 | QVQIVESGGGLVQAGGSLRLSCAASGRTFTAYAMGWYRQAPGKERELVAAITTSGGTTYYADSVKGRFTISRDNAKNTVYLQMKSLKPEDTAVYYCAADVVVSWWLIYDYWGQGTQVTVSS | low polyreactivity
8 | QGQLVESGGGLVQAGGSLRLSCAASGRTFQYYAMGWYRQATGKERELVAAITTVGSTKYADSVKGRFTISRDNAKNTVYLQMNSVKPEDTAVYYCAAGYRTRSGHRVPYSDYSWGQGTQVTVSS | high polyreactivity
9 | QVQLVESGGGLVQAGGSLRLSCAASGIIFRPYAMGWYRQAPGKERELVAAITGSGVSTYYADSVKGRFTISRDNAKNTVYLQMNSLKPEDTAVYYCAARYDVHYDGMDYWGQGTQVTVSS | low polyreactivity
10 | QVQLVESGGGLVQAGGSLRLSCAASGSIFYGYAMGWYRQAPGKERELVAAISLSGGRTYYADSVKGRFTLSRDNAKNPVYLQRNSLKPEDTAVYYCAAQTRSSDGPSWYYYWGQGTQVTVSS | high polyreactivity
11 | QVQLVESGGGLVKAGVSLRLSCAASGSIFVGYAMGWYRQAPGKERELVAAIRSGGSTKYADSVKGRFTISRDNAKNTVYLQMNSLKPEDTAVYYCNVEVHPYYWVDNFHRYPVLHNYWGQGTQVTVSS | low polyreactivity
12 | QVQLVESGGGLVQAGGSLRLSCAASGRTFKENAMGWYRQAPGKERELVAVINSGGRTYYADSVKGRFTISRDNAKNTVYLQMNSLKPEDTAVYYCAAYSRSKESGYWGQGTQVTVSS | high polyreactivity
13 | QVQLVESGGGLVQAGGSLRLSCAASGFIFTPYAMGWYRQAPGKERELVAAISWIGGRTYYADSVKGRFTISRDNAKNTVYLQMHSLKPEDTAVYYCNARTHGWPYSRYYYWGQGTQVTVSS | high polyreactivity
14 | QVQLVESGGGLVQAGGSLRLSCAASGLTFYKNAMGWYRQAPGKVRELVAVISSSGGSTYYADSVKGRFTISRDKAKNTVYLQMNSLKPEDTAVYYCARDLYTEYRWGRLTYDYWGQGTQVTVSS | low polyreactivity
15 | QVQLVESGGGLVQAGGSLRLSGAASGFTFFINGMGWYRQAPGKVRELVAAIRSSGASTYYADSVKGRFTISRDNAKNTVYLQMNSLKPEDTAVYYCNARSRVGNSVADYDYCGQGTQVTVSS | low polyreactivity
16 | QVHLVESGGGLVQAGGSLRLSCAASGRILGYYAMVWYRQAPGKERELVAAISRGGRTNYADSVKGRFTISRDNAKNTVYLQMNSLKPEDTAVYYCAKDVAGLFHVGALYYYWGQGTQVTVSS | low polyreactivity
17 | QVQLVESGGGLVQAGGSLRLSWAASGSIFVHNTMGWYRQAPGKERELVAAITRSVGRTYFADSVKGRFTISRDNAKNTVYLQMTSLQPADTAVYYCAKPASKGYYWGQGTQVTVSS | high polyreactivity
18 | QVQLVESGGGLVQAGCSLRISCAASGLIFQYYAMGWYRQAPGKERELVAAISGFGVRTYYADSVKGRFTISRDNAKNTVYLQMNSLKPEDTAVYYCNTLRQDIIRGDYWGQGTQVTVSS | high polyreactivity
19 | KVQLVESGGGLVQAGGSLRLSCAASGYIFSYYAMGWYRQAPGKERELVAAITASGGRTYYADSVKGRFTISRDNAKNTVYLQMNSQKPEDTAVYYCARASGIILQGQLVRWYRYNYLGQGTQVTVSS | high polyreactivity
20 | QVQLEESGGGLVQAGGSLRLSFAASISSINAMGWYRQAPGKESELVAAIRCSGSSTYYADSVKGRFTISRDNAMITFYLQMNSVKPEDTAVYYCAADTSTGDRGFDYWGHGTQVTVSS | high polyreactivity
21 | QVQLVESVGGLVQAGGSLRLSCAASGSIIKVYAMGWYRQAPGKERELVAGIRGSGGRTYYADSVKGRFTISRDNAKNTVYLQMNSLKPEDTAVYYCNARNPGRLGRFDYWGQGTQVTVSS | low polyreactivity
22 | QVQLVESGGGLVQAGGILRLSCPASGRTFEYYAMGWYRQAPGKERELVASISFGGGSTYADSVKGRFTISRDNAKNTVYLQMNSLKPEDTAVYYCAATGGWYKHWFDYWGQGTQVTVSS | low polyreactivity

Row | Sequence | polyreactivity (PSR sort gate)
23 | QVQLVESGGGLVQAGGSLRLSCAASGSIFSYAMGWYRQAPGKERELVAAISRRGGRTYYADSVKGRFTISRDNEKYTVYLQMNSLKPEDTAVYYCAASGRNRKDGLYEYYYWGQGTQVTVSS | high polyreactivity
24 | HVQLVESGGGLVQAGGSLRLSCAASGLNFLYYGMGWYRQAPGKERELVAAISSGGGTYYADSVKGRFTISRDNAKNTVYLQMNSLKPEDTAVYYCAVDPQWTYWSTYRYDYWGQGTQVTVSS | low polyreactivity
25 | QFQLVDSGGGLVHAGGSRSLSCADSGLIFHNNAMGWYRQAPGKEREFVARITRSGGTTYYADSVKGRFTISRDNAKNTVYLQMNSLKPEDTAVYYCAAEQSVSFLVFTGFKFDYWGQGTHVTVSS | low polyreactivity
26 | QVQLVESGGGLVQAGGSLRLSCAASGRIVYLNAMGWYRQPPGKERELVAAINTSGDSTYYADSVKGRFTISRDNAKNTVYLQMNSLKPVDTAVYYCAAYVIGPDQFIYDYWGQGTQVTVSS | low polyreactivity
27 | QVQLVESGGGLVQAGGSLRLSCAASGRTIKYYAMGWYRQAPGKERELVAVITYGGSTDYADSVKGRFTISRDNAKNTVYLQLNSLKPEDTAVYYCAAGFGRHYWGYDSWGQGTQVTVSS | low polyreactivity
28 | QVQLVESGGGLVQAGGSLRLSCAASGSTFAGNAMGWYRQAPGKERESVAAIDSSTGSTYYADSVKGRFTISRDNAKNTVYLQMTSLKPEDTAVYYCNKTSFLVKLDYWGQGTHVTVSS | low polyreactivity
29 | QVQLVESGGGLVQAGGSLRLSCAASGSTFGSYAMGWYRQAPGKERELVAAITTSGSSTYYADSVKGRFTISRDNAKNTVYLQMNSLKPEDTAVYYCNARPRRLSYSSYNYWGQGTQVTVSS | high polyreactivity
30 | QVQLVESGGGLVQAGGSLRLSCAASGIILSPYAMGWYRQAPGKERELVAAISRSGGSTYYADSVKGRFTISRDNAKNTVYLQMNSLKPEDTAVYYCAAEYYGYWEYDYWGQGTQVTVSS | high polyreactivity
31 | QVQLVESGGGLVQAGGSLRLSCAASGSTLLWNTMGWYRQAPGKERELVAAISITGSTNYADSVKGRFTISRDNEKNTVYLQMNSLKPEDTAVYYCAAPYGLPWWYGSWGQGTQVTVSS | low polyreactivity
32 | QVHLVESGGGLVQAGGSLRLSCAASGFTFSFYAMGWYRQAPGKERELVAAIDRSGGSTYYADSVKGRFTISRDNAKNTVYLQMNSLKPEDTAFYYCAATVFYGYYYWGQGTQVTVSS | high polyreactivity
33 | QVQLVESGGGLVQAGGSLRLSCAASGSIFPVYAMGWYRQAPGKERELVAAITWRSGSTYYADSVKGRFTISRDNAKNTVYLQMNSLKPDDTAVYYCAKVPTYRFDHWGQGTQVTVSS | high polyreactivity
34 | QVQLVESGGGLVQAGGSLRLSCAASGSTFRYYGMGWYRQAPGKERELVAAITWSSGSTFYADSVKGRFTISRDNAKNTVYLQMNSLKPEDTAVYYCAKTWWTRLKTKSLHFGYWGQGTQVTVSS | high polyreactivity
35 | QVQLVESGGGLVQAGGRLRLSCDASGSIFYYYTMGWYRQAPGKEREFVAAITWRGASTYYADSVKGRFTISRDNAKNTVDLKMNSLKPEDTAVDYCNARWRVPRYRYDYWGQGTQVTVSS | high polyreactivity
36 | QVQLVESGGGLVQAGGSLRLSCAASGSILSTYAMGWYRQAPGKERELVASISSNAGSTYYADSVKGRFTISRDNAKNTVYLQMNSLKPEDTAVYYCNKDGKYHRVLYDYWGQGTQVTVSS | low polyreactivity
37 | QVQLVESGGGLVQAGGSLRLSCAASGITFFGYAMGWYRQAPGKERELVAGISRSTGRTYYADSVMGRFTISRDNAKYTVYLQMNSLKPEDTAVYYCDARATRSLSRYMDYWGQGTQVTVSS | high polyreactivity
38 | QVQLQESGGGLVQACGSLRLSCAASGNISPQLYMGWYRQAPGKEREFVADIAEGSTTYYAESVKGRFTISRDDAKNTVYLHMISLKSEDTAVYYCAARYENAESFYYWGQGSQVTVSS | high polyreactivity
39 | QVQLVESGGGLVQAGGSLRLSCAASGFTFGYNDMGWYRQAPGKERELVAGIRSGDDTNYADSVKGRFTISRDNAKNTVYLQMNSLKPEDTAVYYCAVGYGDYLYYDYDYWGQGTQVTVSS | low polyreactivity
40 | QVQLVESGGGLVQAGGSLRLSCAASGRTFYGYAMGWYRQAPGKERELVATISGSGASTYYADSVKGRFTISRDNAKNTVYLQMNSLKPEVTAVYYFAARYVTNRHSRYYYWGQGTQVTVSS | high polyreactivity
41 | QVKLVESGGGLVQAGGSLRLSCAASGFTFNRYAMGWYRQAPGKERELVAAISWSGGSTYYADSVKGRFTISRDNAKNTVYLQMNSLKPEDTAVYYCAAATAYYRYRGGYDYWGQGTQVTVSS | high polyreactivity
42 | QVQLVESGGGLVQAGGSLRLSCAASGLIFSDNAMGWYRQARGKEREFVASISDSGTTTYYADSVKGRFTISRDNAKNTVYLQMNSLKPEDTAVYDCNARPGQSGARFGYWGQGTQVTVSS | high polyreactivity
43 | QVQLVESGGGLVQAGGSLRVSCAASGSTFGYYAMGWYREAPGKEREFVAAINYGDGNTYYADSVKGRFTISRDNAKNTVYLQMNRLKPEDTAVYYCATYYWAPTGAHGGYGYWVQGTQVTVSS | low polyreactivity

— the nanobody polyreactivity screen of Harvey et al. (2022)
